Reference: the supplement of paper PMC12764529
± gives the half width of the 95% confidence interval.

Key:
[1] = folding stability dG unfold from trypsin proteolysis; higher = more stable
Outline: (§1)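 Designed mini-proteins (under 80 residues, no cysteine) in a PA-tagged cDNA display construct were digested with trypsin and chymotrypsin. Each protease was used at 11 concentrations (threefold dilutions) plus a no-protease condition, followed by sequencing. K50 was inferred by Bayesian fitting of sequencing counts, and unfolding free energy was derived against a sequence-predicted unfolded-state K50 and a shared folded-state K50, per protease or combined. Only designs with AlphaFold2 dimer inter-PAE above 15 were kept.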

[2] = folding stability dG unfold from chymotrypsin proteolysis; higher = more stable
Outline: as §1

[3] = folding stability dG unfold (combined trypsin and chymotrypsin); higher = more stable
Outline: as §1

| Sequence | folding stability dG unfold [1] [kcal/mol] | folding stability dG unfold [2] [kcal/mol] | folding stability dG unfold [3] [kcal/mol] |
| --- | --- | --- | --- |
| SALPPGAPPKPERLVLTLTVSEEEVKKGDLEKVRRLVEELVEALREAGFEVKEVEVVEEDGKLTVRIVLDSA [r9_75_TrROS_Hall] | 3.04 ± 0.26 | 2.68 ± 0.17 | 2.92 ± 0.36 |
| SALPYEVEKTSETFLPEEGLTVTEYKITLPDGSELYRRETFDPKTGVRTVTVYDPNGKKLETRTFTVPPSAG [r14_759_JUSTAS] | 2.19 ± 0.038 | 2.49 ± 0.048 | 2.4 ± 0.046 |
| SALTLEIELEFELEDGYRVTVRARLEFDPETNELTIEVEVRIEPLPPPPPPPETVLVKDENGNWHPLEDLSA [r9_898_TrROS_Hall] | 3.22 ± 0.14 | 3.44 ± 0.16 | 3.27 ± 0.15 |
| SALVPIKGKYPVYEMRPEKDPNGNMKPEMRPVKVPIEFPFVVIDPENGKWVPADDIDPEDGRLVAPGLISAG [r14_122_TrROS] | 1.14 ± 0.051 | -0.25 ± 0.045 | 0.598 ± 0.064 |
| SAMDFKAEKVEILKVEKLKDGTVKITVKVEVGKYVLNAEIPYGKDGKIEKIEAEIDLENNFMTYKVTVGSAG [r14_189_TrMRF] | 1.58 ± 0.19 | 2.24 ± 0.13 | 1.97 ± 0.33 |
| SAMEALEEAGFEVVEVEEVEERELPDGKRLVRLRITVRRDGKLVELEIVVPEENEEEALRAALELLREESAG [r14_726_TrROS_Hall] | 4.49 ± 0.18 | 4.4 ± 0.099 | 4.44 ± 0.11 |
| SAMEITETSLDSSTLYTFPGRRITITTTPDSYTITITLPDGTPVTLNFPPTMPLDEVKKKVIETLLASSSAG [r14_618_JUSTAS] | 0.935 ± 0.05 | 1.24 ± 0.16 | 1.19 ± 0.12 |
| SAMEITIEKDENGNIRITLKLDGAEIIEEKEVPPGEKEKTIKIKVDGKVLELTIKDGKIEIKEVSPEDLSAG [r14_403_TrROS_Hall] | 2.93 ± 0.14 | 3.55 ± 0.1 | 3.44 ± 0.13 |
| SAMEVVEERELPDGTTVVTIPDPATGDTVVLVTDPEGKITVYTYPSSTGIPTEEVFPDLSVEEAIARLASAG [r14_760_JUSTAS] | 0.645 ± 0.046 | 0.858 ± 0.071 | 0.775 ± 0.058 |
| SAMIIIRVKSKEELEEAIRRLAEELGIEDATLEQIREALLRAGAKIVSIERDPEREDYVLIVIELPPEPSAG [r14_678_TrROS_Hall] | 4.01 ± 0.1 | 4.1 ± 0.084 | 4.05 ± 0.071 |
| SAMILPKTVPKTITYPGSEEEARAVAEAEAARLKAQGNVTVDITFVKKSPEGGYTIEITITDYAPPELLSAG [r14_413_JUSTAS] | 0.77 ± 0.12 | 0.933 ± 0.28 | 0.861 ± 0.23 |
| SAMITITLPNGTPVNVEVTVTETRASPDGTLTTTDYELTFHPPDGVPRRGKGTVLSDPATGTTTITIIESAG [r14_789_JUSTAS] | 1.47 ± 0.041 | 1.45 ± 0.028 | 1.48 ± 0.042 |
| SAMITVPFTFPAEKAEEILEDPELKELLEKLEKELGAKVVKIEVSPETVPSGSKTTEYVKFTFTIEKKGSAG [r14_819_JUSTAS] | 1.2 ± 0.032 | 1.8 ± 0.16 | 1.55 ± 0.16 |
| SAMKEAKIVSIEFDEETGTVTIEIEVPPGAKLKIRFLDTGEELEVEVKPGETITITVPKEPILIEIELESAG [r14_96_TrROS_Hall] | 3.43 ± 0.18 | 4.09 ± 0.24 | 3.79 ± 0.54 |
| SAMKEGETVRIELVVVVPPGASVEELADALRALFGPDAEIRVEVEEVTVEVDGKTYRVLTVRVEIRLRKSAG [r14_633_TrROS_Hall] | 3.44 ± 0.05 | 4.5 ± 0.059 | 4.18 ± 0.057 |
| SAMKEGQRLLVVKITIYNKNGEKVEELELVVPEEDKEKALEAAKKLAEELAKKLNLEIKIEVEEVPLPPSAG [r14_146_TrROS_Hall] | 3.14 ± 0.2 | 4.02 ± 0.078 | 3.86 ± 0.13 |
| SAMKEMTAEELAKKLEEELRKLFPDVEIKVEIVEVKEDYVVIKVEITVRLKKPDGKEVEFKLELVLKVDSAG [r14_187_TrROS_Hall] | 3.1 ± 0.41 | 3.55 ± 0.15 | 3.4 ± 0.32 |
| SAMKFKITEVKIISVEKKKDGKKTIVIEMKVEKGEEKITIEFDKNGKIKKVSVEKLPDGKTVRVTIEIDSAG [r14_189_TrROS_Hall] | 1.49 ± 0.28 | 2.95 ± 0.087 | 2.52 ± 0.49 |
| SAMKIEPVPDPEHGRTYYTIKFKGAEVQIWENPGQYYISIRPPGNNKQIVIPAPPNDIDDILKELGIKPSAG [r14_4_TrROS] | 1.06 ± 0.032 | 1.71 ± 0.16 | 1.4 ± 0.17 |
| SAMKIKPVPDPVTGKTKYVIDFGDAEVVIYHFPNSYRIEVRKKPDNKTIVIEAKPNEIEEVLKELGLPASAG [r14_4_TrMRF] | 1.4 ± 0.12 | 1.85 ± 0.12 | 1.86 ± 0.16 |
| SAMKIYTLPDGSRLIVIPDPYSDSLSVLLVTRSPDGTYHVTLIRYHPNGEKETFTRTGDLETAIRELLSSAG [r14_179_TrMRF] | 3.55 ± 0.077 | 3.588 ± 0.028 | 3.67 ± 0.091 |

| Sequence | folding stability dG unfold [1] [kcal/mol] | folding stability dG unfold [2] [kcal/mol] | folding stability dG unfold [3] [kcal/mol] |
| --- | --- | --- | --- |
| SAMKKITLDVYRPPDKLLVTVSFPETGKTVTLPFTSEEALREEIVKKLGLSPEELEIVDRKEKELSPELLSA [r9_909_JUSTAS] | 0.194 ± 0.054 | 0.623 ± 0.074 | 0.46 ± 0.13 |
| SAMKKVEIEIEVVEVDGELYILIKIKAETPEEVKEAAEKLLKELGLPPEAEVEVVEKDGEVYILIRLKPSAG [r14_804_TrROS_Hall] | 3.08 ± 0.082 | 4.53 ± 0.05 | 4.17 ± 0.13 |
| SAMKLEAPVVLDGKPVEVEFDAEPFEAPDGDVYYLVPLKVTFPDGRTYTARLRLKPGGKIVSVELLSDESAG [r14_341_TrMRF] | 1.93 ± 0.028 | 1.31 ± 0.19 | 1.77 ± 0.061 |
| SAMKLPPGVEAEVLEVTVDEEVTITIKLEDETVVIVNEKTGEVTVIKPGETVTITMKPGEKLRIIVIKPSAG [r14_385_TrROS_Hall] | 3.2 ± 0.28 | 1.65 ± 0.047 | 2.58 ± 0.24 |
| SAMKLTVSSSSPEEAQAQAEALKAQLRAELAAAGHPGAEVPVEITVTAVPPPVPVDVADPTSDRWSPTPSAG [r14_475_JUSTAS] | 0.804 ± 0.033 | -0.694 ± 0.18 | 0.393 ± 0.07 |
| SAMKNMTPEEVAKLIEEEIRKLYPNAEVKVEVLDAPEDYLVLKVHVTVIEPEEEGEIREFPFLVVIDLSSAG [r14_187_TrMRF] | 3.47 ± 0.15 | 3.31 ± 0.062 | 3.33 ± 0.09 |
| SAMKTETITVPGLKIEVTENKDGKKTIKITAATPEQAEEWLKKNPELRKLIEELEKAGYKVEITVLPPPSAG [r14_873_TrROS_Hall] | 3.4 ± 0.17 | 2.83 ± 0.051 | 3.01 ± 0.049 |
| SAMKVEPFTFKVTFKVPVLNPETGEATEEGVEAEVVVYRSDDGTLYVVAFVKFENGKTAVFPFTIDKDGSAG [r14_50_TrMRF] | 3.19 ± 0.1 | 3.781 ± 0.029 | 3.59 ± 0.064 |
| SAMLGAEELVRRIAEEIERRLGVPAGFDVPVRVYRPEDALVIDAYIVARGPDGEPLGERRITLVLRPEDSAG [r14_708_TrMRF] | 1.94 ± 0.032 | 3.49 ± 0.051 | 2.93 ± 0.11 |
| SAMLSPAEIKRPRLLEIIETIKKLGNFSVDIKRLPGDGDVKVKIELDPNKIEEAAKITGIPLSEIKKLVSAG [r14_688_JUSTAS] | 0.923 ± 0.15 | 0.748 ± 0.1 | 0.673 ± 0.31 |
| SAMLVITRPDGRPYLVRLKVDKVEPSPDGTLITVEFTLELFSPDGTPETFKGTLIFDPKTGKLVLKIDPSAG [r14_789_TrMRF] | 2.83 ± 0.056 | 3.71 ± 0.014 | 3.42 ± 0.075 |
| SAMLVVELEVDLPELKYMTPEEAEEIAEALAVEAAKELFPESDVKVKEVVVEPEPETGKLKVTVVLENESAG [r14_310_TrMRF] | 2.18 ± 0.13 | 2.51 ± 0.048 | 2.46 ± 0.081 |
| SAMNLKTFKIEVPDGKIFTIPPNYKAEIVEYDPEKGVVTIKLTAYETNPLKEVEKKEFSFKFKFLEEFPSAG [r14_927_TrMRF] | 1.181 ± 0.011 | 1.62 ± 0.082 | 1.46 ± 0.086 |
| SAMNTRTVTLTIERPPGSPETLEAVRARLAALGFTVTSESEEVLPDESLTRVTLTVEDPGVPETLLALLSAG [r14_956_JUSTAS] | 1.65 ± 0.021 | 2.03 ± 0.057 | 1.91 ± 0.06 |
| SAMPIDITVEGVERPPDSVVVHLRLDPSVPSDLAVTVKVRGADGTVLEVPAEDRTATLRVPSSDVVVDLSAG [r14_350_JUSTAS] | 0.387 ± 0.11 | 0.912 ± 0.24 | 0.78 ± 0.16 |
| SAMPLLVKVTFYPKDPVTGIPSEEIEEKEVPDIEEAIKEVKKKLPKDNSAKIEVLDENGKLLKTIDLNLSAG [r14_234_JUSTAS] | 0.721 ± 0.029 | 0.885 ± 0.11 | 0.845 ± 0.12 |
| SAMPVLVVIKRTVVLPRPGEELAKYEDPDGKVRRRVVVETLVVEVNPEDLPELVEFFKSLGIDEISVFGSAG [r14_509_TrMRF] | 2.18 ± 0.039 | 2.22 ± 0.031 | 2.13 ± 0.11 |
| SAMRFVVRVEGDLEEVERALREEFDFEMEAEREEDGRLVVVVEAEPEELERLVEALERLPDFPVEIEPESAG [r14_521_TrMRF] | 1.01 ± 0.027 | 0.716 ± 0.1 | 0.93 ± 0.062 |
| SAMRIRIEVETRTGPDGRKYVVVRIRDEKTGEELELVFESREEAEEAAKALAEELKKAGYEIEVEIRPPSAG [r14_263_TrROS_Hall] | 5.23 ± 0.47 | 5.21 ± 0.2 | 5.21 ± 0.19 |
| SAMSAEELAERLRERLKKLAEEEGLEVEITVTVEENEDGSLTVTITVKSEEEAERIKEKLPEGVKVEKKSAG [r14_491_TrROS_Hall] | 1.43 ± 0.054 | 2.37 ± 0.1 | 2.14 ± 0.21 |
